Results from publication PMC11251166.

Biological target: ADP-ribosylated ubiquitin (ADPR-Ub) (UniProt P0CG48)
Assay: ITC

## MavL_N322A
  Kd: 5.96 µM
